Consider three molecules from US20230374157A1 (SYSTIMMUNE, published 2023).

For test [1], the target named is T1, His-tagged human EGFR extracellular domain (expressed and purified in-house) (human, UniProt P00533 25-645).
T1 construct: extracellular domain; Monomeric, in solution; also called EGFR (purified in-house); not shown: His tag
Put plainly: BLI, antibody on AHC tips, monomeric EGFR ECD in solution, 1:1 fit. A general note: Biolayer interferometry detects binding as a change in optical thickness at a sensor tip.

Test [2] deals with T2, human His-tagged HER3 extracellular domain (in-house expressed) (human, UniProt P21860 20-643).
T2 construct: extracellular domain; also called HER3 ECD (in-house expressed); not shown: His tag
Put plainly: BLI sandwich assay, antibody held on immobilized EGFR, HER3 ECD in solution.

For test [3], the target named is T3, biotinylated human EGFR extracellular domain (Acro EGF-H82E3) (human, UniProt P00533 25-645, biotinylated (site not stated)).
T3 construct: extracellular domain; Loaded onto streptavidin (SA) sensors; also called immobilized EGFR
Briefly: BLI avidity format, biotinylated EGFR ECD on SA sensors, antibody in solution, 1:1 fit.

Test [4] deals with T4, His-tagged human HER3 extracellular domain (Acro ER3-H5223) (human, UniProt P21860 20-643).
T4 construct: extracellular domain; Monomeric, in solution; not shown: His tag
Put plainly: BLI (Octet), antibody captured on AHC sensors; tandem: 100 nM EGFR 720 s, then 100 nM EGFR + 400 nM HER3 720 s, then buffer; EGFR+HER3 step.

Test [5] deals with T4, His-tagged human HER3 extracellular …. Briefly: BLI, antibody on AHC tips, monomeric HER3 ECD in solution, 1:1 fit.
The target in test [6] is T2, human His-tagged HER3 extracellular …. Put plainly: BLI sandwich assay, antibody held on immobilized biotinylated EGFR, 500 nM HER3 ECD in solution, 1:1 fit.

B1: SI-71M1, humanized cetuximab monoclonal antibody (antibody, human IgG1, kappa, V domains shown)
VH: QVQLQQSGPGLVKPSETLSITCTVSGFSLTNYGVHWIRQAPGKGLEWLGVIWSGGNTDYNTPFTSRFTITKDNSKNQVYFKLRSVRADDTAIYYCARALTYYDYEFAYWGQGTLVTVSS
VL: EIVLTQSPSTLSVSPGERATFSCRASQSIGTNIHWYQQKPGKPPRLLIKYASESISGIPDRFSGSGSGTEFTLTISSVQSEDFAVYYCQQNNNWPTTFGPGTKLTVLR
notes: also called Hu-Cetuximab; humanized cetuximab mAb
Take B1: the Kd was 4.76 nM in test [1] and under 0.001 nM in test [3]. The koff – broadly, the first-order rate constant of dissociation – in test [1] was 0.0013 s⁻¹; in test [3] it was under 1e-07 s⁻¹. The kon (commonly a measure of how fast the partners come together) in test [1] was found to be 272000 M⁻¹ s⁻¹; in test [3] it was 466000 M⁻¹ s⁻¹. Further, the binding result is “no binding (tested: 500 nM)” in test [2] and “no binding (tested: 400 nM)” in test [4].

B2: SI-71X14, bispecific tetravalent anti-EGFR x HER3 antibody (humanized cetuximab IgG with MM-111 anti-HER3 scFv at the C-terminus of each heavy chain) (bispecific antibody)
heavy: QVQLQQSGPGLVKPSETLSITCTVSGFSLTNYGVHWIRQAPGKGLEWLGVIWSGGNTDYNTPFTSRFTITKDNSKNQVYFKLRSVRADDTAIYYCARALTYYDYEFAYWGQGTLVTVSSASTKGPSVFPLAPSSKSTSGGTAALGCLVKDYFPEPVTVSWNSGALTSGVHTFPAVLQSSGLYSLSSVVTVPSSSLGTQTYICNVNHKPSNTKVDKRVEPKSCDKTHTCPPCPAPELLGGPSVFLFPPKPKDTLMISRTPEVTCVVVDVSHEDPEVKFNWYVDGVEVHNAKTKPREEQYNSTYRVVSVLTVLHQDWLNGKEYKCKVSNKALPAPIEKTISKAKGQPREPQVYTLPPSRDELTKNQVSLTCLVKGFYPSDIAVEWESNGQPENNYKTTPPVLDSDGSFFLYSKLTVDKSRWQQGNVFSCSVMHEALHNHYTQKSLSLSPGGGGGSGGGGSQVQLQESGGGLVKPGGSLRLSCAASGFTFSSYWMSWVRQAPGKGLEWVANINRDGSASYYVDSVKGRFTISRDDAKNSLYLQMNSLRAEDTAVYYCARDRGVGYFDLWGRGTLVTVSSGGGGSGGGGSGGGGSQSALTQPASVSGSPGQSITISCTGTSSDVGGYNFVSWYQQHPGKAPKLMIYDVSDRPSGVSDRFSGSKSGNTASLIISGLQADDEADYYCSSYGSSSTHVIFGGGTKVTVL
light: EIVLTQSPSTLSVSPGERATFSCRASQSIGTNIHWYQQKPGKPPRLLIKYASESISGIPDRFSGSGSGTEFTLTISSVQSEDFAVYYCQQNNNWPTTFGPGTKLTVLRTVAAPSVFIFPPSDEQLKSGTASVVCLLNNFYPREAKVQWKVDNALQSGNSQESVTEQDSKDSTYSLSSTLTLSKADYEKHKVYACEVTHQGLSSPVTKSFNRGEC
notes: VH position 85 (Kabat) is D instead of cetuximab's N
In the case of B2, the Kd in test [1] was 4.61 nM; in test [5], 117 nM; in test [3], under 0.001 nM; in test [6] it was 922 nM. Besides, the koff was 0.00122 s⁻¹ in test [1], 0.0308 s⁻¹ in test [5], under 1e-07 s⁻¹ in test [3] and 0.07 s⁻¹ in test [6]. In addition, the kon in test [1] worked out at 264000 M⁻¹ s⁻¹; in test [5], 265000 M⁻¹ s⁻¹; in test [3], 353000 M⁻¹ s⁻¹; in test [6] it was 75900 M⁻¹ s⁻¹.

B3: SI-1C5 (nimotuzumab-based anti-EGFR monoclonal antibody) (antibody, V domains shown)
VH: QVQLQQSGAEVKKPGSSVKVSCKASGYTFTNYYIYWVRQAPGQGLEWIGGINPTSGGSNFNEKFKTRVTITVDESTNTAYMELSSLRSEDTAFYFCARQGLWFDSDGRGFDFWGQGSTVTVSS
VL: DIQMTQSPSSLSASVGDRVTITCRSSQNIVHSNGNTYLDWYQQTPGKAPKLLIYKVSNRFSGVPSRFSGSGSGTDFTFTISSLQPEDIATYYCFQYSHVPWTFGQGTKLQITR
In test [1], B3 displayed a Kd of 15.8 nM, a koff of 0.00178 s⁻¹ and a kon of 113000 M⁻¹ s⁻¹.
